Where a chain is given by its changes, count along the chain named.
T1: OVA (UniProt P01012 2-386)
T1 sequence (looked up): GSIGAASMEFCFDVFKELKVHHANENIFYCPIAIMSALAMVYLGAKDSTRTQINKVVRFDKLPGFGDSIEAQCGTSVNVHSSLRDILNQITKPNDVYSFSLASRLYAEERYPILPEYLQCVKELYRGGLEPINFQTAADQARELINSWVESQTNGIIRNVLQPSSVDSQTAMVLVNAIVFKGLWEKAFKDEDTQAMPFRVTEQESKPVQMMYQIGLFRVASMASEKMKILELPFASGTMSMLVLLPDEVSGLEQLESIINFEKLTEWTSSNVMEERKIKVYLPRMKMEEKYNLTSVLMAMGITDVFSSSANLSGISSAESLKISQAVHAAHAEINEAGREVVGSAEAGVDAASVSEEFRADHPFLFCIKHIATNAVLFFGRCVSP

B1: light chain of ECL2B-2 (ECL2B-2-L) (protein)
VL: DVLMTQTPLSLPVSLGDQASISCRSSQSIVHSNGNTYLEWYLQKPGQSPKLLIYKVSNRFSGVPDRFSGSGSGTDFTLKINRVAAEDLGVYYCFQGSHVPWTFGGGTKLEIKRA
B2: light chain of ECL2B-4 (ECL2B-4-L) (protein)
VL: B1 VL with L51F, N81S, A84E, A85T
B3: monoclonal antibody ECL2B-2 (antibody, V domains shown)
VH: DVKLVESGGGLVKPGGSLKLSCAASGFTFSRYTMSWVRQTPEKRLEWVATISSGGSYTYYPDSVKGRFTISRDIAKNTLYLQMSSLKSEDTALYYCTREGGYGAFASWGQGTLVTVS
VL: DVLMTQTPLSLPVSLGDQASISCRSSQSIVHSNGNTYLEWYLQKPGQSPKLLIYKVSNRFSGVPDRFSGSGSGTDFTLKINRVAAEDLGVYYCFQGSHVPWTFGGGTKLEIKR
notes: also called intact monoclonal antibody ECL2B-2
B4: monoclonal antibody ECL2B-3 (antibody, V domains shown)
VH: QIQLVQSGPELKKPGETVKISCKASGYTFTNYGMNWVKQAPGKGLEWMGWINTYTGEPTYAGDFMGRSVFSLETSASTAYLQINNLENKDTATYICARSGSPYAMDYWGQGTSVTVS
VL: DIALTQSPASLAVSLGQRATISCKASQSVDYDGDSYMNWFQQKPGQPPKLLIYAASNLESGIPGRFSGSGSGTDFTLNIHPVEEEDIATYYCQQSYEDPFTFGSGTILDIKR
B5: heavy chain of i41SL1-2 antibody (i41SL1-2-H) (protein)
VH: QVQLQHSGAELVRPGSSVKVSCKALGYTSTDYEIHWVKQTPVRGLEWIGAIHPGSDVIVYNQKFKGTATLTADKSSSTAYMELRSLTSEDSAVYYCTREGGSVDYVWGQGTLVTVSA
B6: light chain of i41SL1-2 antibody (i41SL1-2-L) (protein)
VL: DIVMTQTQLTLTINIGQPASISCKSSQSLLDSDGKTYLNWLFQRPGQSPKRLIYLVSKLDSGVPDRFTGSGSGTDFTLKISRVEAEDLGVYYCWQGTHFPLTFGAGTKLELRRA

Assays:
[1] = molecular target: ECL2B peptide (…), partial peptide of CCR-5 (human); assay: cell-based or functional assay
ECL2B peptide (…), partial peptide of CCR-5 (human), sequence (peptide, as listed by the source): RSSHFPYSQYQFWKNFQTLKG

[2] = molecular target: ECL2B peptide (sequence No.38) as named in Experiment 3-9 (human); assay: cell-based or functional assay
[3] = molecular target: peptide TP41-1 of a retention region of gp41 (HIV-1) (…) (HIV-1); assay: cell-based or functional assay
[4] = molecular target: HSA (human, UniProt P02768 25-609); assay: ELISA (immunoassay of Experiment 3-3), absorbance at 405 nm
HSA, sequence (P02768 25-609): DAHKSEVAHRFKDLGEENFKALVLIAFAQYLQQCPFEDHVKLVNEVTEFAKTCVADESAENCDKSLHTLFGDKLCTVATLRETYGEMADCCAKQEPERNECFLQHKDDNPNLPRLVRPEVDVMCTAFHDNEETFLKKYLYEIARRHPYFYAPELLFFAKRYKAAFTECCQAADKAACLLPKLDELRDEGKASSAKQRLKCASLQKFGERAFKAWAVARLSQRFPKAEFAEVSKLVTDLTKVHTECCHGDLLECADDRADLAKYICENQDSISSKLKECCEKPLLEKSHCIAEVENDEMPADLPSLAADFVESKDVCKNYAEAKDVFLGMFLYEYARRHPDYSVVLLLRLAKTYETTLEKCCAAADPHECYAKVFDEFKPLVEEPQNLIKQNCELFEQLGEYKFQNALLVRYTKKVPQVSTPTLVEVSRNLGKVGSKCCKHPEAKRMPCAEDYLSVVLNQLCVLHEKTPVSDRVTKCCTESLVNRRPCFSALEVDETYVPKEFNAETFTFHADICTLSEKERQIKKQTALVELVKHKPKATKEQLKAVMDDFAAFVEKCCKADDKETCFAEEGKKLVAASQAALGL
From the text: (§1) The blocking was applied with 2% gelatin at room temperature.

[5] = molecular target: T1, OVA; assay: as above
From the text: as §1

[6] = molecular target: CDR1 antigen peptide (…), synthetic peptide of CDR 1 of the light chain of antibody 41S-2; assay: cell-based or functional assay

Row | Binder | binding result [4] | binding result [5] | Km [6] | kcat [6] | kcat/Km [6] | further results
1 | B1 |  |  |  |  |  | time until the ECL2B peptide disappeared (RP-HPLC) [1]: 90 h
2 | B2 |  |  |  |  |  | Km [2]: 35 µM; Vmax [2]: 0.31 µM/min; kcat [2]: 0.012 s⁻¹; kcat/Km [2]: 367 M⁻¹ s⁻¹; Km [3]: 12.5 µM; Vmax [3]: 0.0624 µM/min; kcat [3]: 0.00267 s⁻¹; kcat/Km [3]: 208 M⁻¹ s⁻¹
3 | B3 | no binding | no binding |  |  |  | 
4 | B4 | no binding | no binding |  |  |  | 
5 | B5 |  |  | 13 µM | 0.0103 s⁻¹ | 812 M⁻¹ s⁻¹ | 
6 | B6 |  |  | 2 µM | 0.0102 s⁻¹ | 5170 M⁻¹ s⁻¹ | 
